From US7589065

T1: Ala-Ala-Tyr-Ala-Ala
T1 chain: AAYAA

B1: fragment of the trigger factor (protein)
chain: RKQQATWKEKDGAVEAEDRVTIDFTGSVDGEEFEGGKASDFVLAMGQGRMIPGFEDGIKGHKAGEEFTIDVTFPEEYHAENLKGKAAKFAINLKKVEERELPELTAE
B2: trigger factor (TF) (protein)
chain: MQVSVETTQGLGRRVTITIAADSIETAVKSELVNVAKKVRIDGFRKGKVPMNIVAQRYGASVRQDVLGDLMSRNFIDAIIKEKINPAGAPTYVPGEYKLGEDFTYSVEFEVYPEVELQGLEAIEVEKPIVEVTDADVDGMLDTLRKQQATWKEKDGAVEAEDRVTIDFTGSVDGEEFEGGKASDFVLAMGQGRMIPGFEDGIKGHKAGEEFTIDVTFPEEYHAENLKGKAAKFAINLKKVEERELPELTAEFIKRFGVEDGSVEGLRAEVRKNMERELKSAIRNRVKSQAIEGLVKANDIDVPAALIDSEIDVLRRQAAQRFGGNEKQALELPRELFEEQAKRRVVVGLLLGEVIRTNELKADEERVKGLIEEMASAYEDPKEVIEFYSKNKELMDNMRNVALEEQAVEAVLAKAKVTEKETTFNELMNQQA
B3: Parvulin (protein)
chain: AKTAAALHILVKEEKLALDLLEQIKNGADFGKLAKKHSICPSGKRGGDLGEFRQGQMVPAFDKVVFSCPVLEPTGPLHTQFGYHIIKVLYRN

Target: T1, Ala-Ala-Tyr-Ala-Ala
B1 showed a relative intensity of the cross signal of the Ala-Tyr peptide bond (no addition: 3.50 ± 0.51) (relative intensity) of 3.96 and a relative intensity of the cross signal of the Tyr-Ala peptide bond (no addition: 3.89 ± 0.32) (relative intensity) of 3.22.
B2 showed a relative intensity of the cross signal of the Ala-Tyr peptide bond (no addition: 3.50 ± 0.51) (relative intensity) of 3.83 and a relative intensity of the cross signal of the Tyr-Ala peptide bond (no addition: 3.89 ± 0.32) (relative intensity) of 4.42.
In the case of B3, the relative intensity of the cross signal of the Ala-Tyr peptide bond (no addition: 3.50 ± 0.51) (relative intensity) is reported as 2.9 and the relative intensity of the cross signal of the Tyr-Ala peptide bond (no addition: 3.89 ± 0.32) (relative intensity) is reported as 3.11.
